Source: the Human Domainome abundance scans (Beltran et al. 2025)
± gives the uncertainty stated by the source.

B1: Zinc finger protein ZIC 2, residues 250 to 295; numbered along this chain, O95409 (parent)
chain: QCIKQELICKWIDPEQLSNPKKSCNKTFSTMHELVTHVSVEHVGGP

Variants of: B1
Assay: abundance fitness (aPCA) (normalised: wild type 0, dead -1); higher = more abundant; growth selection in yeast, the domain comes from the species named
Conditions: Homo sapiens

With QCIKQELICKWIDPEQLSNPKKSINKTFSTMHELVTHVSVEHVGGP [C24I] as the variant, how does the abundance fitness read?
The abundance fitness was -1.12 ± 0.18.

For QCIKQELICKWIDPEQLSNPKKSYNKTFSTMHELVTHVSVEHVGGP [C24Y], which abundance fitness is on record?
The abundance fitness was -0.994 ± 0.13.

With QCIKQELICKWIDPEQLSNPKKSGNKTFSTMHELVTHVSVEHVGGP [C24G] as the variant, how does the abundance fitness read?
Its abundance fitness is -0.61 ± 0.088.

With QCIKQELICKWIDPEQLSNPKKSWNKTFSTMHELVTHVSVEHVGGP [C24W] as the variant, how does the abundance fitness read?
The abundance fitness was -0.868 ± 0.1.

Which abundance fitness does the source give for QCIKQELICKWIDPEQLSNPKKSKNKTFSTMHELVTHVSVEHVGGP [C24K] here?
Its abundance fitness is -0.979 ± 0.13.

With QCIKQELICKWIDPEQLSNPKKSHNKTFSTMHELVTHVSVEHVGGP [C24H] as the variant, how does the abundance fitness read?
Its abundance fitness is -0.698 ± 0.16.

With QCIKQELICKWIDPEQLSNPKKSENKTFSTMHELVTHVSVEHVGGP [C24E] as the variant, how does the abundance fitness read?
The abundance fitness was -0.488 ± 0.099.

With QCIKQELICKWIDPEQLSNPKKSMNKTFSTMHELVTHVSVEHVGGP [C24M] as the variant, how does the abundance fitness read?
The abundance fitness was -0.906 ± 0.12.

For QCIKQELICKWIDPEQLSNPKKSTNKTFSTMHELVTHVSVEHVGGP [C24T], which abundance fitness is on record?
Its abundance fitness is -0.8 ± 0.11.

Which abundance fitness does the source give for QCIKQELICKWIDPEQLSNPKKSNNKTFSTMHELVTHVSVEHVGGP [C24N] here?
The abundance fitness was -0.798 ± 0.16.

For QCIKQELICKWIDPEQLSNPKKSQNKTFSTMHELVTHVSVEHVGGP [C24Q], which abundance fitness is on record?
The abundance fitness was -0.764 ± 0.12.

For QCIKQELICKWIDPEQLSNPKKSANKTFSTMHELVTHVSVEHVGGP [C24A], which abundance fitness is on record?
Its abundance fitness is -0.836 ± 0.1.

With QCIKQELICKWIDPEQLSNPKKSPNKTFSTMHELVTHVSVEHVGGP [C24P] as the variant, how does the abundance fitness read?
Its abundance fitness is -0.889 ± 0.13.

For QCIKQELICKWIDPEQLSNPKKSSNKTFSTMHELVTHVSVEHVGGP [C24S], which abundance fitness is on record?
The abundance fitness was -0.766 ± 0.094.

Which abundance fitness does the source give for QCIKQELICKWIDPEQLSNPKKSRNKTFSTMHELVTHVSVEHVGGP [C24R] here?
The abundance fitness was -0.841 ± 0.093.

With QCIKQELICKWIDPEQLSNPKKSLNKTFSTMHELVTHVSVEHVGGP [C24L] as the variant, how does the abundance fitness read?
The abundance fitness was -0.901 ± 0.1.

With QCIKQELICKWIDPEQLSNPKKSFNKTFSTMHELVTHVSVEHVGGP [C24F] as the variant, how does the abundance fitness read?
Its abundance fitness is -1.05 ± 0.13.

Which abundance fitness does the source give for QCIKQELICKWIDPEQLSNPKKSVNKTFSTMHELVTHVSVEHVGGP [C24V] here?
Its abundance fitness is -0.86 ± 0.097.

With QCIKQELICKWIDPEQLSNPKKSCNKTFFTMHELVTHVSVEHVGGP [S29F] as the variant, how does the abundance fitness read?
The abundance fitness was -0.215 ± 0.1.

Which abundance fitness does the source give for QCIKQELICKWIDPEQLSNPKKSCNKTFATMHELVTHVSVEHVGGP [S29A] here?
The abundance fitness was -0.086 ± 0.093.

Which abundance fitness does the source give for QCIKQELICKWIDPEQLSNPKKSCNKTFHTMHELVTHVSVEHVGGP [S29H] here?
Its abundance fitness is 0.077 ± 0.12.

Which abundance fitness does the source give for QCIKQELICKWIDPEQLSNPKKSCNKTFDTMHELVTHVSVEHVGGP [S29D] here?
The abundance fitness was 0.352 ± 0.1.

Which abundance fitness does the source give for QCIKQELICKWIDPEQLSNPKKSCNKTFGTMHELVTHVSVEHVGGP [S29G] here?
The abundance fitness was 0.03 ± 0.084.

Which abundance fitness does the source give for QCIKQELICKWIDPEQLSNPKKSCNKTFKTMHELVTHVSVEHVGGP [S29K] here?
The abundance fitness was 0.03 ± 0.11.

With QCIKQELICKWIDPEQLSNPKKSCNKTFLTMHELVTHVSVEHVGGP [S29L] as the variant, how does the abundance fitness read?
The abundance fitness was 0.07 ± 0.092.

For QCIKQELICKWIDPEQLSNPKKSCNKTFCTMHELVTHVSVEHVGGP [S29C], which abundance fitness is on record?
The abundance fitness was -0.337 ± 0.094.

For QCIKQELICKWIDPEQLSNPKKSCNKTFETMHELVTHVSVEHVGGP [S29E], which abundance fitness is on record?
The abundance fitness was 0.425 ± 0.096.

For QCIKQELICKWIDPEQLSNPKKSCNKTFITMHELVTHVSVEHVGGP [S29I], which abundance fitness is on record?
Its abundance fitness is -0.356 ± 0.14.

Which abundance fitness does the source give for QCIKQELICKWIDPEQLSNPKKSCNKTFMTMHELVTHVSVEHVGGP [S29M] here?
The abundance fitness was -0.077 ± 0.11.

With QCIKQELICKWIDPEQLSNPKKSCNKIFSTMHELVTHVSVEHVGGP [T27I] as the variant, how does the abundance fitness read?
Its abundance fitness is 0.381 ± 0.11.

Which abundance fitness does the source give for QCIKQELICKWIDPEQLSNPKKSCNKYFSTMHELVTHVSVEHVGGP [T27Y] here?
Its abundance fitness is -0.818 ± 0.17.

With QCIKQELICKWIDPEQLSNPKKSCNKEFSTMHELVTHVSVEHVGGP [T27E] as the variant, how does the abundance fitness read?
The abundance fitness was 0.188 ± 0.097.

With QCIKQELICKWIDPEQLSNPKKSCNKAFSTMHELVTHVSVEHVGGP [T27A] as the variant, how does the abundance fitness read?
The abundance fitness was -0.116 ± 0.089.

For QCIKQELICKWIDPEQLSNPKKSCNKQFSTMHELVTHVSVEHVGGP [T27Q], which abundance fitness is on record?
The abundance fitness was 0.119 ± 0.098.

With QCIKQELICKWIDPEQLSNPKKSCNKFFSTMHELVTHVSVEHVGGP [T27F] as the variant, how does the abundance fitness read?
The abundance fitness was 0.174 ± 0.11.

For QCIKQELICKWIDPEQLSNPKKSCNKDFSTMHELVTHVSVEHVGGP [T27D], which abundance fitness is on record?
Its abundance fitness is 0.072 ± 0.11.

Which abundance fitness does the source give for QCIKQELICKWIDPEQLSNPKKSCNKWFSTMHELVTHVSVEHVGGP [T27W] here?
Its abundance fitness is -0.296 ± 0.089.

Which abundance fitness does the source give for QCIKQELICKWIDPEQLSNPKKSCNKNFSTMHELVTHVSVEHVGGP [T27N] here?
The abundance fitness was 0.001 ± 0.11.

For QCIKQELICKWIDPEQLSNPKKSCNKRFSTMHELVTHVSVEHVGGP [T27R], which abundance fitness is on record?
The abundance fitness was -0.025 ± 0.084.

With QCIKQELICKWIDPEQLSNPKKSCNKSFSTMHELVTHVSVEHVGGP [T27S] as the variant, how does the abundance fitness read?
The abundance fitness was -0.001 ± 0.087.

Which abundance fitness does the source give for QCIKQELICKWIDPEQLSNPKKSCNKMFSTMHELVTHVSVEHVGGP [T27M] here?
Its abundance fitness is 0.182 ± 0.094.

With QCIKQELICKWIDPEQLSNPKKSCNKLFSTMHELVTHVSVEHVGGP [T27L] as the variant, how does the abundance fitness read?
The abundance fitness was -0.19 ± 0.089.

With QCIKQELICKWIDPEQLSNPKKSCNKCFSTMHELVTHVSVEHVGGP [T27C] as the variant, how does the abundance fitness read?
Its abundance fitness is -0.17 ± 0.099.

With QCIKQELICKWIDPEQLSNPKKSCNKHFSTMHELVTHVSVEHVGGP [T27H] as the variant, how does the abundance fitness read?
Its abundance fitness is -0.449 ± 0.14.

With QCIKQELICKWIDPEQLSNPKKSCNKGFSTMHELVTHVSVEHVGGP [T27G] as the variant, how does the abundance fitness read?
The abundance fitness was 0.104 ± 0.083.

Which abundance fitness does the source give for QCIKQELICKWIDPEQLSNPKKSCNKVFSTMHELVTHVSVEHVGGP [T27V] here?
Its abundance fitness is 0.06 ± 0.088.

For QCIKQELICKWIDPEQLSNPKKSCNKTYSTMHELVTHVSVEHVGGP [F28Y], which abundance fitness is on record?
The abundance fitness was -0.724 ± 0.13.

For QCIKQELICKWIDPEQLSNPKKSCNKTASTMHELVTHVSVEHVGGP [F28A], which abundance fitness is on record?
The abundance fitness was -0.811 ± 0.1.

With QCIKQELICKWIDPEQLSNPKKSCNKTKSTMHELVTHVSVEHVGGP [F28K] as the variant, how does the abundance fitness read?
The abundance fitness was -0.471 ± 0.11.

Which abundance fitness does the source give for QCIKQELICKWIDPEQLSNPKKSCNKTLSTMHELVTHVSVEHVGGP [F28L] here?
The abundance fitness was -0.668 ± 0.092.

Which abundance fitness does the source give for QCIKQELICKWIDPEQLSNPKKSCNKTWSTMHELVTHVSVEHVGGP [F28W] here?
The abundance fitness was -0.968 ± 0.1.

Which abundance fitness does the source give for QCIKQELICKWIDPEQLSNPKKSCNKTCSTMHELVTHVSVEHVGGP [F28C] here?
The abundance fitness was -0.725 ± 0.11.

With QCIKQELICKWIDPEQLSNPKKSCNKTRSTMHELVTHVSVEHVGGP [F28R] as the variant, how does the abundance fitness read?
Its abundance fitness is -0.84 ± 0.09.

With QCIKQELICKWIDPEQLSNPKKSCNKTHSTMHELVTHVSVEHVGGP [F28H] as the variant, how does the abundance fitness read?
The abundance fitness was -1.04 ± 0.15.

Which abundance fitness does the source give for QCIKQELICKWIDPEQLSNPKKSCNKTTSTMHELVTHVSVEHVGGP [F28T] here?
Its abundance fitness is -0.631 ± 0.1.

With QCIKQELICKWIDPEQLSNPKKSCNKTVSTMHELVTHVSVEHVGGP [F28V] as the variant, how does the abundance fitness read?
Its abundance fitness is -0.724 ± 0.1.
